Publication PMC8086355, “The unusual structure of the PiggyMac cysteine-rich domain reveals zinc finger diversity in PiggyBac-related transposases”

Target: T1, MBP-PgmD401A (Paramecium tetraurelia, UniProt A0DFJ7 1-1065, D401A)
T1 sequence: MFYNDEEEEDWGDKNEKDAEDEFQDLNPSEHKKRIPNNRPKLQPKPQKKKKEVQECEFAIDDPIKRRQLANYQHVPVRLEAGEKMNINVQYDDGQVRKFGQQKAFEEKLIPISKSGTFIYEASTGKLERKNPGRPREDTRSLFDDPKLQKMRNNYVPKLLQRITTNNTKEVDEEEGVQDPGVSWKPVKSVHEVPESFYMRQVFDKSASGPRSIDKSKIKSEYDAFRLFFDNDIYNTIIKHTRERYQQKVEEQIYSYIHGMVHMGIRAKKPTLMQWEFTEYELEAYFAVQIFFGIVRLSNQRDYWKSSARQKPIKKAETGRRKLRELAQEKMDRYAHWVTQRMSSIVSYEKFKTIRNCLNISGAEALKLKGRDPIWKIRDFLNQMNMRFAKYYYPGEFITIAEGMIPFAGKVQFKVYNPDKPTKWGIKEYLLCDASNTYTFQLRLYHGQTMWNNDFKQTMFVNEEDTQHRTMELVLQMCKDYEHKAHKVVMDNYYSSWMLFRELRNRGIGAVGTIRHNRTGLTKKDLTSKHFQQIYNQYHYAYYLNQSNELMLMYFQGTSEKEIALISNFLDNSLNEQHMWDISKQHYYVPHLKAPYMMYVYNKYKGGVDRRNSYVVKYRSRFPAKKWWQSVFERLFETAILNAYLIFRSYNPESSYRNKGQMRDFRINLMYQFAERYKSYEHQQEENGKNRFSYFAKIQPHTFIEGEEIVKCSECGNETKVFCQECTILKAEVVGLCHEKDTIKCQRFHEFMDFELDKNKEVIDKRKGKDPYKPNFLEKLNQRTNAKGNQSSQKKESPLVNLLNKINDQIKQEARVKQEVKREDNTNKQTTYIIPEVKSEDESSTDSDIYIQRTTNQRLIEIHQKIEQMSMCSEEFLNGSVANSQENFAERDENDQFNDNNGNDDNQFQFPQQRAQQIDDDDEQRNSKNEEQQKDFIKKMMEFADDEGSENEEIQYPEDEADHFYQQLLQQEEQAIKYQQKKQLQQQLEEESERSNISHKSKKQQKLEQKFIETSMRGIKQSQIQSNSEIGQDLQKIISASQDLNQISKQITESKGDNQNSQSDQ
Experiment: DRaCALA; 400 nM protein; DRaCALA: 25 mM HEPES pH 7.5, 0.1 mg/ml BSA, 0.5 mM DTT, 100 mM NaCl, 25 nM DNA, no competitor, temperature not stated; EMSA: as in earlier paper, 5% acrylamide
Conditions: protein: recombinant; tags: N-terminal MBP; label: 32P at 5' end of top strand

B1: IES 51A1835 80-bp substrate (dsDNA)
DNA 1: ACTACTACATAATGCTAAACTCATTTATAGATGGATTGTTTTCCAAGTATCTATATCATCATGTGTTGCTAATAACCCTG
DNA 2: ATCGCAGGGTTATTAGCAACACATGATGATATAGATACTTGGAAAACAATCCATCTATAAATGAGTTTAGCATTATGTAGT
- binding result: binds
